Measured values taken from US11046988B2, “Process for the modification of a glycoprotein using a β-(1,4)-N-acetylgalactosaminyl transferase or a mutant thereof” (Synaffix B.V., priority 2014, dated 2021).

B1: TnGalNAcT: truncated Trichoplusia ni β-(1,4)-GalNAcT, amino acids 33-421 of SEQ ID NO: 4 (SEQ ID NO: 8) (protein)
chain: SPLRTYLYTPLYNATQPTLRNVERLAANWPKKIPSNYIEDSEEYSIKNISLSNHTTRASVVHPPSSITETASKLDKNMTIQDGAFAMISPTPLLITKLMDSIKSYVTTEDGVKKAEAVVTLPLCDSMPPDLGPITLNKTELELEWVEKKFPEVEWGGRYSPPNCTARHRVAIIVPYRDRQQHLAIFLNHMHPFLMKQQIEYGIFIVEQEGNKDFNRAKLMNVGFVESQKLVAEGWQCFVFHDIDLLPLDTRNLYSCPRQPRHMSASIDKLHFKLPYEDIFGGVSAMTLEQFTRVNGFSNKYWGWGGEDDDMSYRLKKINYHIARYKMSIARYAMLDHKKSTPNPKRYQLLSQTSKTFQKDGLSTLEYELVQVVQYHLYTHILVNIDERS
modifications: TnGalNAcT(33-421)

Tested on: trimmed trastuzumab (core GlcNAc(Fuc) / core GlcNAc, glycan of formula (1))
Experiment: Glycosyltransfer of sugar derivative to trimmed (Endo S deglycosylated) trastuzumab, MS analysis
Assay type: biochemical
Details: for major heavy chain product, F2-GalNAz transfer to core GlcNAc(Fuc)-substituted trastuzumab: UDP-F2-GalNAz 0.4 mM; for conversion of the starting material into two products: UDP-GalNProSH 2 mM
Description: Trimming of IgG glycans was performed using Endo S from Streptococcus pyogenes (commercially available from Genovis, Lund, Sweden). The IgG (10 mg/mL) was incubated with Endo S (40 U/mL) in 25 mM Tris pH 8.0 for approximately 16 hours at 37° C. The deglycosylated IgG was concentrated and washed with 10 mM MnCl2 and 25 mM Tris-HCl pH 8.0 using an Amicon Ultra-0.5, Ultracel-10 Membrane (Millipore).
Trastuzumab was subjected to the trimming protocol above. Analysis of the trimmed antibody was performed on a JEOL AccuToF equipped with an Agilent 1100 HPLC. Samples (2 μL) were reduced with DTT (2 μL) during 10 min and subsequently diluted with H2O (40 μL) prior to injection. […] The two peaks of heavy chain belonged to one major product (49496 Da, 90% of total heavy chain), resulting from core GlcNAc(Fuc) substituted trastuzumab, and a minor product (49351 Da, ±10% of total heavy chain), resulting from core GlcNac substituted trastuzumab. This is an example of a glycoprotein comprising a glycan according to formula (1).
A solution of 50 μg (modified) IgG, 1 M Tris-HCl pH 8.0, 1 mM EDTA and 30 mM DTT with a total volume of approximately 70 μL was incubated for 20 minutes at 37° C. to reduce the disulfide bridges allowing to analyze both light and heavy chain. If present, azide-functionalities are reduced to amines under these conditions. Reduced samples were washed trice with milliQ using an Amicon Ultra-0.5, Ultracel-10 Membrane (Millipore) and concentrated to 10 μM (modified) IgG. The reduced IgG was analyzed by electrospray ionization time-of-flight (ESI-TOF) on a JEOL AccuTOF. Deconvoluted spectra were obtained using Magtran software.
Enzymatic introduction of galactose derivative (e.g. azido-containing sugar) onto IgG was effected with a GalNAc-transferase or a mutant thereof. The deglycosylated IgG (prepared as described above, 10 mg/mL) was incubated with a modified UDP-galactose derivative (e.g. an azido-modified sugar-UDP derivative) (0.4 mM) and GalNAcT (1 mg/mL) in 10 mM MnCl2 and 25 mM Tris-HCl pH 8.0 for 16 hours at 30° C. The functionalized IgG (e.g. azido-functionalized IgG) was incubated with protein A agarose (40 μL per mg IgG) for 2 hours at 4° C. The protein A agarose was washed three times with PBS and the IgG was eluted with 100 mM glycine-HCl pH 2.7. The eluted IgG was neutralized with 1 M Tris-HCl pH 8.0 and concentrated and washed with PBS using an Amicon Ultra-0.5, Ultracel-10 Membrane (Millipore) to a concentration of 15-20 mg/mL.
Enzymatic introduction of galactose derivative (e.g. thio-containing sugar 21) onto IgG was effected with a GalNAc-transferase or a mutant thereof. The deglycosylated IgG (prepared as described above, 10 mg/mL) was incubated with a modified UDP-galactose derivative (e.g. an thio-modified sugar-UDP derivative) (2 mM) and GalNAcT (0.2 mg/mL) in 10 mM MnCl2 and 50 mM Tris-HCl pH 6.0 for 16 hours at 30° C. The functionalized IgG (e.g. thio-functionalized trastuzumab) was incubated with protein A agarose (40 μL per mg IgG) for 1 hours at rt. The protein A agarose was washed three times with TBS (pH 6.0) and the IgG was eluted with 100 mM glycine-HCl pH 2.5. The eluted IgG was neutralized with 1 M Tris-HCl pH 7.0 and concentrated and washed with 50 mM Tris-HCl pH 6.0 using an Amicon Ultra-0.5, Ultracel-10 Membrane (Millipore) to a concentration of 15-20 mg/mL.

[1] = GalNAcT 1 mg/mL, 10 mM MnCl2, pH 8.0, 16 hours, 30° C.
[2] = UDP-GalNAz 0.4 mM, GalNAcT 1 mg/mL, 10 mM MnCl2, pH 8.0, 16 hours, 30° C.

Row | Molecule | major heavy chain product, F2-GalNAz transfer to core GlcNAc(Fuc)-substituted trastuzumab [1] | major product, F2-GalNBAz transfer to core GlcNAc(Fuc) substituted trastuzumab heavy chain (UDP-F2GalNBAz 7 mM, CeGalNAcT 2 mg/mL, 10 mM MnCl2, pH 8.0, 30° C. overnight) | major product, GalNAz transfer to core GlcNAc(Fuc) substituted trastuzumab [2] | minor product, GalNAz transfer to core GlcNAc substituted trastuzumab [2] | conversion of the starting material into two products (CeGalNAcT 1 mg/mL, overnight) | conversion, GalNBzN3 transfer to core GlcNAc(Fuc) substituted trastuzumab (UDP-GalNBzN3 4 mM, TnGalNAcT 0.7 mg/mL, overnight) | conversion of the starting material into two products (TnGalNAcT 0.2 mg/mL, overnight) | conversion, GalNPyrN3 transfer to core GlcNAc(Fuc) substituted trastuzumab (UDP-GalNPyrN3 4 mM, TnGalNAcT 0.5 mg/mL, overnight)
1 | CeGalNAcT: truncated Caenorhabditis elegans β-(1,4)-GalNAcT, amino acids 30-383 of SEQ ID NO: 2 (SEQ ID NO: 6) | approximately 90 % of total heavy chain | approximately 90 % of total heavy chain | 90 % of total heavy chain | ~10 % of total heavy chain | Full conversion |  |  | 
2 | B1 | approximately 90 % of total heavy chain |  |  |  |  | About 70% | Full conversion | About 50%
